Results on 29 sequences are retold here after a protein production outcome set (Wang et al. 2014).
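Note: failed if final PepcDB status was selected cloned or expressed and not failed if soluble or beyond.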

The series in a line: label from the status in PepcDB records.
As to “LEEVQLVVEPEGGAVAPGGTVTLTCEVPAQPSPQIHWMKDGVPLPLPPSPVLILPEIGPQDQGTYSCVATHSSHGPQESRAVSISIIEPGEEGPTAGSVGGSGLGTLALALGILGGLGTAALLIGVILWQRRQRRGEERKAPENQEEEEERAELNQSEEPEAGESSTGGP”, the protein production entry is listed as “not failed”.

“LEKNDLVYMQRAFELNDKVAKDIMIDRTQLVVIDITSTVKEALNVYLQERFSRLPVVADNDKDKVLGYVYNYDLTRQQQVDSSVRVDKLIRDISTTPETTPITQVLQQMIKKRTPIVVVVDEYGGTSGIITDKDIYEEL”: the protein production entry is on record as “failed”.

As to “LELLEALSLPVWIFDIDHRRVFWANEAALQVWGAGSLLELQTRDMARDMSVSVAQRLAQYQQDFEREGASFVESWTLYPNGRPSVLKVKFRGIRVNGRMLMFCEAQN”, the protein production result is “failed”.

Turning to “LEPRKKAEEALRKSEERFAKAFRMAPVPSLVLYGDDLQALDINQAFSETFGYQAEELLGESTVACGLWQDGGAERLGELLAQSGSVRNVQLRLQHKDRNGLDCLVSAEAVSLNEQDCVLVALLDIS”, the protein production result is on record as “not failed”.

On to “LETSWIKPGQASWEWWNDAAPYGPDVNFVSGYNLETYKYYIDFASKYGIRYIIMDEGWAKSTRDPYTPNAKVDVHELIRYAEKKNVGIVLWLTWLTVENNMDLFKTFSEWGVKGVKIDFMDRSDQWMMNFYERVAAEAAKYKLFVDFHGSVSPKGLEYKYPNVLSYEGVRGMEQMGGATPDNSIFMPFMRNAVGAMD”, for which the protein production entry is given as “not failed”.

As for “LFQRVLYATDFSENATRAFDAFQYLRHATQEATLVHVESPKDATSEADPAEQLASLADTLSQWDIETNVEVRRGDPAEEILDVEAAVTPTTTLVGSRGQSRMRRLLLGSVSEDIIAQATGNVYLVPPP”, the protein production result is “failed”.

With “LGLVCLTVGPEVRFRTVTLSRYRALSPAEREAKLLDLYSSNIKTLRGAADYCAAHDIRLYRLSSSLFPMLDLAGDDTGAAVLTHLAPQLLEAGHAFTDAGVRLLMHPEQFIVLNSDRPEVRESSVRAMSAHARVMDGLGLARTPWNLLLLHGGKGGRGAELAALIPDLPDPVRLRLGLENDERAYSPAELLPICEATGTPLVFDAHHHVVHDKLPDQEDPSVREWVLRARATWQPPEWQVVHLSNGIEGPQDRRHSHLIADFPSAYADVPWIEVEAKGKEEAIAALRLMAPFKKD”, the protein production result was “failed”.

For the sequence “LIIFCLLSVVAAAAYFSFSHWAIRHETLTFFDESRGRPVAIDLAVRRDAEMKAEAGMVTLPVAVVSHGNTVKNTEYSFLANVLAARGYLVASIQHDLPDDKPLMTVAGSLYVGRLAVYERGEKNIFFALKELKKLEPNADYDHLTLVGHSNGGDISMFFAQQHPEMVRRVVTLD”, the protein production entry is given as “failed”.

Consider “LKVLTNKASVMLFMKGNKQEAKCGFSKQILEILNSTGVEYETFDILEDEEVRQGLKTFSNWPTYPQLYVRGDLVGGLDIVKELKDNGELLPILKGE”, for which the protein production entry is reported as “not failed”.

Turning to “LLGELNEWLQSCRSLEELFAMVSRFMEHILPDAEGSLYVYSNSRDVLDGSAGWNGGAFKDHIHPEACWGLRRGRSYEYGASEVDFVCDHAEPHDGRPYFCFPVLAHGETVGLMHLRAQPGAEAEFSASKRLAQMCAEQISMAIANVRMRDQLHDQ”, the protein production entry is “failed”.

Regarding “LLHRTFMADAGWSDLKAFEVILRHIPHDAALHAANSTPVRYLQLFEHAHYAGGEWSNRGTNGIEGATSTAMGFSEVYSGTTLLITGDLSFMYDSNALWMPYVNGRIRVIVMRNGGGGIFRFIPGPDSLKELETCFETPLEVPVREMAGAYGWRYMKAVSAEELETVLPSFFASGDRAVLLEVETPRFENAPVLKSYFTYISGESYPVNR”, the protein production entry is listed as “failed”.

With “LLKVEFYKLKRSKVFYLFIVLMIMQSMFVLIPIKENYLLNKTGQDMFLQSFPLQEFIFNTLIIGAFGYFIGKEFHSGYIKNLIVSGHKRINIVLSKAIVFCIGVAIISFIFPICTFVINSIRNGYGEKYSVEYMFEVSVIMLFVYLAIGSIVTMISFITKNIAITIALFYLI”, the protein production result is “failed”.

As for “LLTSQIVDQYAEHIFYNSGAVGMALVVIDNNQVVNRSFGETQPGNNIRPRPDSLIRIASITKLMTSEIMVKLADDGIVKLTDPLKKYAPKGVNVPSYSAKQPIRLLHLASHTSGLPREQPGGPQKRPVFTWPTKDNRWQWLKLAKVTVPPGVKAAYSNLAYDLLADALSRAAGKPYAHLLRDKITAPLGMKNTTLTPTAEQCKRLMIGVGSSRCGNTVAAAGSGGIYSTPEDMQHWMQQFLASDNSAPKRSAKREQALYFQRGDLVSLKGMDVAGQADALGLGWVYMAPKADLPGIMQKTGGGGGFITYMAMVPEKNIGVFVVVTRSQLTKFSNMSDGVNQLVAELVK”, the protein production result is listed as “not failed”.

With “LPPKKFGNPGERLRKKKWDLSELPKFEKNFYVEHPEVARLTPYEVDELRRKKEITVRGGDVCPKPVFAFHHANFPQYVMDVLMDQHFTEPTPIQCQGFPLALSGRDMVGIAQTGSGKTLAYLLPAIVHINHQPYLERGDGPICLVLAPTRELAQQVQQVADDYGKCSRLKSTCIYGGAPKGPQIRDLERGVEICIATPGRLIDFLESGKTNLRRCTYLVLDEADRMLDMGFEPQIRKIVDQIRPDRQTLMWSATWPKEVRQLAEDFLRDYTQINVGNLELSANHNILQIVDVCMESEKDHKLIQLMEEIMAEKENKTIIFVETK”, the protein production entry is “failed”.

Consider “LQVGKVYIFGSGHVARALVPILNYLSFYCVVVDDRPEFLTAQAFPQAEELRVIPLENLAAFIEITADDYGIVITRGHNFDFIVAKQLLETPAKYIGVMGSKHKIASQVRRLKEVGYTMTEIERIFMPIGLDIAAETPEELAISIAGELIQQRYQ”, for which the protein production result is given as “failed”.

As for “LRARTYGEGGFRVERVLEERPAFTRVQFSYLSDGLRVHGFANLPKGRGPFPVVVVLHGYVEPSRYRLLAYTTPYADFLAERGYLVLHPNFRGHPPSEGAPAQGLRHVYAVDVLNLLAEVRRGAFPQADPAR”, the protein production entry is listed as “failed”.

Take “LRKMIALIHKDYAKNLRLETLASVFNYNRAYLGKLFKNYTGEYFNTYLDKVRIENGKRLLQKGYKVYEVAEKIGYANVDYFHRKFKKYVGVSPSTFRKR”: the protein production entry is on record as “not failed”.

Take “LRKMIALIHKDYAKNLRLETLASVFNYNRAYLGKLFKNYTGEYFNTYLDKVRIENGKRLLQKGYKVYEVAEKIGYANVDYFHRKFKKYVGVSPSTFRKRHDHLQVYHD”: the protein production result is listed as “failed”.

Take “LRQSQQMLQLVMDTIPHSVFWKDRNSVFLGCNRNFAIMVGYEHPENLIGKTDYDFLPDPRNADLYRQCDARIIETNNPEYHIIEPMLAPDGQQIWLETNKVPLHDPEGNVVGVLGTFEDITERKQVQEA”: the protein production entry is “failed”.

Consider “LSANYAENLQAQQRSAQRLEHQAWLRTGQTQLAQQVLGQLTLPMLGENILRFFASYLGSVVGAVYVRDEHGRLVRVACYGLSTEEQAREQIESDHHGLLAQAVREGRLLRLEELPEDFYRLSSGLGSGLPRSALLMPATEDGQINGVIELGFLRPLQERDEELLERVGGNLGMSIESA”, for which the protein production entry is on record as “failed”.

For “LSDKLMERLKERAEGIFVSGPPGSGKSTFVAALAEFYRSQGKIVKTMESPRDLQVSKEITQYAPLEGDMEKTCDILLLVRPDYTIYDEVRKTRDFEIFADMRMAGVGMVGVVHASKPIDAIQRLIGRVELGVIPQVVDTVIFIKDGKIQKVYEIDFTVKVPYG”, the protein production result is on record as “failed”.

Consider “LSEVEFVEFQKENFSLLIDARSPREFLHSHLIGALNFYALNDEEYQEIGTIYKKNQALAKAMGASYICQNTTKHILEITQNFRIGEKVGIYCSRGGLRSKSIAVILSELGFRVVRLKGGFKAYRTFVTHYFEN”, for which the protein production entry is “failed”.

Consider “LSIPEDYQARLQPNRVEGSYPLVRMEFTGATVDAPLMSQISRKYNIDVSILSSDLDYAGGVKFGMMVAELFGNEQDDSAAIEYLREHNVKVEVLGYVL”, for which the protein production entry is given as “not failed”.

On to “LSNLETAKAMIAAYNAQDVDTYVSYMTDDACEANYRGDVVREGKEGTRSGLAAAFARWPQNHAEIKDAQQVGTYVLMREHVTRGPATDGSPLVEPFDVVAVYSFEGDKCSRVEFIR”, for which the protein production result is recorded as “not failed”.

Consider “LSPPRGLVAVRTPRGVLLHWDPPELVPKRLDGYVLEGRQGSQGWEVLDPAVAGTETELLVPGLIKDVLYEFRLVAFAGSFVSDPSNTANVSTSGL”, for which the protein production result is “not failed”.

In the case of “LTFETLAREWFAYNSPRWAESTTYKAKLYMENDLIPGIGARPVKALTRPDLVDLVRKVEARGTLNAAGKIRQWLHQIFRYGLAKGVVESNPATDLDVVAAP”, the protein production entry is “failed”.

Turning to “MAAAAATAVGPGAGSAGVAGPGGAGPCATVSVFPGARLLTIGDANGEIQRHAEQQALRLEVRAGPDAAGIALYSHEDVCVFKCSVSRETECSRVGRQSFIITLGCNSVLIQFATPHDFCSFYNILKTCRGHTLERSVFSERTEESSAVQYFQFYGYLSQQQNMMQDYVRTGTYQRAILQNHTDFKDKIVLDVGCGSGILSFFAAQAGARKIYAVEASTMAQHAEVLVKSNNLTDRIVVIPGKVEEVSLPEQVDIIISEPMGYMLFNERMLESYLHAKKYLKPSGNMFPTIGDVHLAPFTDEQLYMEQFTKANFWYQPSFHGVDLSALRGAAVDEYFRQPVVDTFDIRILMAKSVKYTVNFLEAKEGDLHRIEIPFKFHMLHSGLVHGLAFWFDVAFIGSIMTVWLSTAPTEPLTHWYQVRCLFQSPLFAKAGDTLSGTCLLIANKRQSYDISIVAQVDQTGSKSSNLLDLKNPFFRYTGTTPSPPPGSHYTSPSENMWNTGSTYNLSSGVAVAGMPTAYDLSSVIAGGSSVGHNNLIPLANTGIVNHTHSRMGSIMSTGIVQGNRVAGPWAGDLPPGLRTRSSYQWGPGRLRGHAGSSVPMTCPTGSSGAQGGGGSSSAHYAVNNQFTMGGPAISMASPMSIPTNTMHYGS”, the protein production result was “failed”.

For the sequence “MAAAPWYIRQRDTDLLGKFKFIQNQEDGRLREATNGTVNSRWSLGVSIEPRNDARNRYVNIMPYERNRVHLKTLSGNDYINASYVKVNVPGQSIEPGYYIATQGPTRKTWDQFWQMCYHNCPLDNIVIVMVTPLVEYNREKCYQYWPRGGVDDTVRIASKWESPGGANDMTQFPSDLKIEFVNVHKVKDYYTVTDIKLTPTDPLVGPVKTVHHFYFDLWKDMNKPEEVVPIMELCAHSHSLNSRGNPIIVHCSAGVGRTGTFIALDHLMHDTLDFKNITERSRHSDRATEEYTRDLIEQIVLQLRSQRMKMVQTKDQFLFIYHAAKYLNSLSVNQ”, the protein production result was “failed”.

Turning to “MAAAVSTVGAINRAPLSLNGSGSGAVSAPASTFLGKKVVTVSRFAQSNKKSNGSFKVLAVKEDKQTDGDRWRGLAYDTSDDQQDITRGKGMVDSVFQAPMGTGTHHAVLSSYEYVSQGLRQYNLDNMMDGFYIAPAFMDKLVVHITKNFLTLPNIKVPLILGIWGGKGQGKSFQCELVMAKMGINPIMMSAGELESGNAGEPAKLIRQRYREAADLIKKGKMCCLFINDLDAGAGRMGGTTQYTVNNQMVNATLMNIADNPTNVQLPGMYNKEENARVPIICTGNDFSTLYAPLIRDGRMEKFYWAPTREDRIGVCKGIFRTDKIKDEDIVTLVDQFPGQSIDFFGALRARVYDDEVRKFVESLGVEKIGKRLVNSREGPPVFEQPEMTYEKLMEYGNMLVMEQENVKRVQLAETYLSQAALGDANADAIGRGTFYGKGAQQVNLPVPEGCTDPVAENFDPTARSDDGTCVYNF”, the protein production result is given as “failed”.
